*1 amine or outer side, *2 acyl side, *3 side chain or, on linkers, in order; H or OH if unused. Side-chain parts run from the residue outwards. [ ]: non-standard residue; d: D form. pAMF = para-azidomethylphenylalanine, [N-]=[N+]=NCc1ccc(C[C@H](N[*:1])C(=O)[*:2])cc1
How the values were obtained:
Assay in all cases: cell-based or functional assay
[1] = molecular target: T1, human IL-2Rαβγc (on Kit225-STAT5 reporter cells, NK-92 cells, primary Treg cells) (human, UniProt P01589 22-272; P14784 27-551; P31785 23-369)
T1 sequence (looked up) 1: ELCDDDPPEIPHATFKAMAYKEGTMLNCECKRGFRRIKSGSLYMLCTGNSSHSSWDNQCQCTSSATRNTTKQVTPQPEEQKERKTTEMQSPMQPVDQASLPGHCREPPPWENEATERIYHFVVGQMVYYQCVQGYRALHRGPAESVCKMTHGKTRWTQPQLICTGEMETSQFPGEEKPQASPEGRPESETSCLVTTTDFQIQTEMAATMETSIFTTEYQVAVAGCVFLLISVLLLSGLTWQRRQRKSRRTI
T1 sequence (looked up) 2: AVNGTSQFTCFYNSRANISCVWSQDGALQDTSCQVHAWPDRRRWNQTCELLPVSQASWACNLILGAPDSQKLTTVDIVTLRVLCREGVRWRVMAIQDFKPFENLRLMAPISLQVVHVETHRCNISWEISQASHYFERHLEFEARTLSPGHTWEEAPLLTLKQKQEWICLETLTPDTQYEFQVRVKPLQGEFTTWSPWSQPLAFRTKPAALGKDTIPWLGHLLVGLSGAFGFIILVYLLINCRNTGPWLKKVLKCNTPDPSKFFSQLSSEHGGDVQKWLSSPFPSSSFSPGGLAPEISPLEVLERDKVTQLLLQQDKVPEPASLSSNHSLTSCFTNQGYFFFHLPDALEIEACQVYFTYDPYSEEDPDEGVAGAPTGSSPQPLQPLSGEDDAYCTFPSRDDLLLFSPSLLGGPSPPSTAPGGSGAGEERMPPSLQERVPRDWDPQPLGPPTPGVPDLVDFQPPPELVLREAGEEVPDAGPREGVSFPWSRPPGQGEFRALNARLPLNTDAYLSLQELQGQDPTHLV
T1 sequence (looked up) 3: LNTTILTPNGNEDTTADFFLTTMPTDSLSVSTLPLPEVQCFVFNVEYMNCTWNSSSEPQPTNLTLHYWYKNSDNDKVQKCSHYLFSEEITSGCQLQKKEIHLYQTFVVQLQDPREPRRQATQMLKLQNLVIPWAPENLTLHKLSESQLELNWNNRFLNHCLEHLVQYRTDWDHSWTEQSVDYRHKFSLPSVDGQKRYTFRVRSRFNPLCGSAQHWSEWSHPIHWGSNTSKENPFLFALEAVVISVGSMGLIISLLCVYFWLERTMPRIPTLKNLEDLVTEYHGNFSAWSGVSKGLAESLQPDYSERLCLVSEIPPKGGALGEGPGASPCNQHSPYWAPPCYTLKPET

[2] = molecular target: T2, mouse IL-2Rαβγc (on CTLL2-STAT5 reporter cells) (mouse, UniProt P01590 22-268; P16297 27-539; P34902 23-369)
T2 sequence (looked up) 1: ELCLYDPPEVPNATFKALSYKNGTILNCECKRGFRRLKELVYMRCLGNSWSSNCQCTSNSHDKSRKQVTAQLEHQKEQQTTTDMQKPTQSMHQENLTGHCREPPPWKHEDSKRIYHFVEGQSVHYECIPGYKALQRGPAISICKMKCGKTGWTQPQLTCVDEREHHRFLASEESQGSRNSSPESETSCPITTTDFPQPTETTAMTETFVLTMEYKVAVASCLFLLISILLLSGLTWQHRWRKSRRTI
T2 sequence (looked up) 2: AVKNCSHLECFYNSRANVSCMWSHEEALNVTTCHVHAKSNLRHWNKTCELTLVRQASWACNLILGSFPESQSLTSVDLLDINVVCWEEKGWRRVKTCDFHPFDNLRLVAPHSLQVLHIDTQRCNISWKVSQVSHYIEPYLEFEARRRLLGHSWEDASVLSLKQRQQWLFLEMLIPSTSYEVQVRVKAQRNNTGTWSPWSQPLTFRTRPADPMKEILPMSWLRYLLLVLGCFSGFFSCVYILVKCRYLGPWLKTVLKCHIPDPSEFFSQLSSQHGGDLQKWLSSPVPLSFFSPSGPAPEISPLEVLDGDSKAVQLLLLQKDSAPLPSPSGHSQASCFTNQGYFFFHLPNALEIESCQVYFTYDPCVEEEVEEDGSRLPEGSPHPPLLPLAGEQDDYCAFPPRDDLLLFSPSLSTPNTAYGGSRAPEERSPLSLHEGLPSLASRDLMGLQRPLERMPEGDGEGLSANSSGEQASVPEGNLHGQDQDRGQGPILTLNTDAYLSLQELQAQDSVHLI
T2 sequence (looked up) 3: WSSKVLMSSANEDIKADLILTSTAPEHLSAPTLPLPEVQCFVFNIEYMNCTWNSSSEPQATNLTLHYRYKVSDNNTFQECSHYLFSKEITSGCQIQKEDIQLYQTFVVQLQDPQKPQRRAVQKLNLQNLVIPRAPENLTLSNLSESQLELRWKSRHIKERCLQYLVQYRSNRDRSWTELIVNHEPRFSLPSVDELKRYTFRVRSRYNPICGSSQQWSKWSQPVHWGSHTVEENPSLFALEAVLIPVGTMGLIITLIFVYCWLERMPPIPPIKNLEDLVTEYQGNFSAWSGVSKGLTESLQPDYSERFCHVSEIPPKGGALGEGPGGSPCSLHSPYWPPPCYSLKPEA

[3] = molecular target: T1, human IL-2Rαβγc (on Kit225-STAT5 …); remark: listed apart in the source
[4] = molecular target: T3, human IL-2Rβγc (on DERL-7 cells, U2OS IL2RB/IL2RG cells, CD25 knockout Kit225-STAT5 cells, primary CD8+ CTLs) (human, UniProt P14784 27-551; P31785 23-369)
T3 sequence (looked up) 1: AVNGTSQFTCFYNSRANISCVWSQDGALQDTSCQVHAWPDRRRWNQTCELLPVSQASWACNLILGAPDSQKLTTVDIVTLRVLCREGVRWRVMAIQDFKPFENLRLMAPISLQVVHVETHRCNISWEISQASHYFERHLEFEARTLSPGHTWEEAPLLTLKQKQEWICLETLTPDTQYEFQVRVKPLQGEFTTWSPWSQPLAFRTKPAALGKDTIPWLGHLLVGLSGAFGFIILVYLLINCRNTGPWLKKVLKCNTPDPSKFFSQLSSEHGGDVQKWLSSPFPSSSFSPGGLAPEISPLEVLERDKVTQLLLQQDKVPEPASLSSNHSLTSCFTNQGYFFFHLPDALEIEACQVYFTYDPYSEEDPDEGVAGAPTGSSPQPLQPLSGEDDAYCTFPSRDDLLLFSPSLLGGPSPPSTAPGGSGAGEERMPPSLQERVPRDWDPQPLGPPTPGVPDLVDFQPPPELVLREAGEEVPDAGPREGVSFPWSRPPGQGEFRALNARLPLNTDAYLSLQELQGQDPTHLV
T3 sequence (looked up) 2: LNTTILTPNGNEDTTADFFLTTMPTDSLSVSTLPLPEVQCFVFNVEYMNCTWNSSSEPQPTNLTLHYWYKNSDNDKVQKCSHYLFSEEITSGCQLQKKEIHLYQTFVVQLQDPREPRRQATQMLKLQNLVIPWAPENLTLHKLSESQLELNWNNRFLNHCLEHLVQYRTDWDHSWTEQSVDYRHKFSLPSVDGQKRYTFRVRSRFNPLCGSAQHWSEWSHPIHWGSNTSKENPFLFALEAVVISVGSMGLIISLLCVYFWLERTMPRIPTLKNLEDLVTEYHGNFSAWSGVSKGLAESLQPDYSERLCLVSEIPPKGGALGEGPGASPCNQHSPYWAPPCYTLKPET

[5] = molecular target: T1, human IL-2Rαβγc (on Kit225-STAT5 …); remark: listed apart in the source
[6] = molecular target: T3, human IL-2Rβγc (on DERL-7 cells, U2OS …); remark: listed apart in the source

- Kit225-STAT5 reporter, fold lower activity than aldesleukin [1]: 5110 fold
- STAT5-CTLL2 EC50 [2]: 57.4 nM
- STAT5-CTLL2 EC50 Fold-change [2]: 5300 fold
- Kit225-STAT5 EC50 [3]: 0.45 nM
- Kit225-STAT5 EC50 Fold-change [3]: 437 fold
- NK-92 EC50 Fold-change [3]: 117 fold
- NK-92 proliferation EC50 [3]: 0.68 nM
- DERL-7 EC50 Fold-change [4]: 17 fold
- DERL-7 proliferation EC50 [4]: 0.73 nM
- pSTAT5 Treg Fold-change from wt, donor #1 [5]: 3620 fold
- pSTAT5 Treg Fold-change from wt, donor #2 [5]: 2230 fold
- pSTAT5 Treg cells EC50, donor #1 [5]: 11.8 nM
- pSTAT5 Treg cells EC50, donor #2 [5]: 7.29 nM
- pSTAT5 CTLs EC50, donor #1 [6]: 71.9 nM
- pSTAT5 CTLs EC50, donor #2 [6]: 43 nM
- pSTAT5 CTLs Fold-change from wt, donor #1 [6]: 25 fold
- pSTAT5 CTLs Fold-change from wt, donor #2 [6]: 45 fold
B1: Ald_S4pAMF(PEG1)/R37A/F41K (CON1) (ligand)
chain: PTS[pAMF]([DBCO‑triazole-mPEG 30 kDa])STKKTQLQLEHLLLDLQMILNGINNYKNPKLTAMLTKKFYMPKKATELKHLQCLEEELKPLEEVLNLAQSKNFHLRPRDLISNINVIVLELKGSETTFMCEYADETATIVEFLNRWITFSQSIISTLT
modifications: not fully specified (bridges)
notes: also called Des-A1_IL-2_S4pAMF(PEG1)/R37A/F41K/C124S

Source: patent publication US20210340207A1 (Merck Sharp & Dohme, published 2021)
